We go through 40 molecules from patent EP2014310A2 (Dyax Corporation, dated 2009).

Assay [1] concerns the target T1, human KDR-Fc fusion (R&D Systems #357-KD-050) (human, UniProt P35968 20-764).
T1 construct: bought
In words: fluorescence anisotropy, fluorescein-labeled peptide. For orientation: Fluorescence polarisation rises when a labelled molecule tumbles more slowly, as on binding a larger partner.

For assay [2], the target named is T1, human KDR-Fc fusion (R&D Systems …). Nature of the assay: phage binding screen on KDR-Fc; class legend in paragraph 246.

Bridge positions count the residues as written; N and C are the ends.

T1 sequence (P35968 20-764): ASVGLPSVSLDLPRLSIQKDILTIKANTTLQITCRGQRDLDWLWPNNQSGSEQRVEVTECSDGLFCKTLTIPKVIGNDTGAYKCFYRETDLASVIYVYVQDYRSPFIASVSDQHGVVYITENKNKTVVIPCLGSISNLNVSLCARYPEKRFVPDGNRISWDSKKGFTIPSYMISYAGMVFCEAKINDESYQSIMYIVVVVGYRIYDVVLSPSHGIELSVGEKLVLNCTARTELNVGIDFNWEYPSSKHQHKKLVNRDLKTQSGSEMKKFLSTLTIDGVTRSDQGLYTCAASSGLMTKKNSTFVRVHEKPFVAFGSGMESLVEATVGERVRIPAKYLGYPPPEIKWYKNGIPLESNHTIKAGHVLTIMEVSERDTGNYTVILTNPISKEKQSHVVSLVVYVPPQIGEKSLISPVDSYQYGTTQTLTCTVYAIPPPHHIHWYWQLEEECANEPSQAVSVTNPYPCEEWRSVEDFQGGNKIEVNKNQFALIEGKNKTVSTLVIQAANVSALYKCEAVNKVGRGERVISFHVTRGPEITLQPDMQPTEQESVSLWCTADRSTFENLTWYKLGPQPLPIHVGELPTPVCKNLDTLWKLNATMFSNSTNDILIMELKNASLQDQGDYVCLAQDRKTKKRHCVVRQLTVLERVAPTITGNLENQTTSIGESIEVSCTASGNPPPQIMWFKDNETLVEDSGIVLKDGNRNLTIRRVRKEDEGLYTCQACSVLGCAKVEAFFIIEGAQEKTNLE

The term Kd denotes the free concentration of one partner at which half of the binding sites on the other are occupied at equilibrium, for simple one-to-one binding. Lower therefore signals a tighter complex. Regarding Ac-AGPWTCWLEDHLACAMLGTGGGK-NH2 (disulfide 6-14 (inferred); not fully specified) [SEQ ID NO:312], in assay [1], binding was characterised by a dissociation constant (Kd) of 3900 nM.

As to Ac-AQRSWYLGPPYYEEWDPIPNGGK-NH2 (not fully specified) [SEQ ID NO:309], the Kd in assay [1] came to 1800 nM.

Consider Ac-AGERWVECRAETGFCYTWVSGTGGGK-NH2 (disulfide 8-15 (inferred); not fully specified) [SEQ ID NO:289], for which the Kd in assay [1] came to 2100 nM.

B1: SEQ ID NO:266 (peptide)
peptide: Ac-AGWVECWWKSGQCYEFGTGGGK-NH2
modifications: cysteine pairing not given here; also: C-terminal Lys fluorescein-labeled for some assays, unlabeled for others
B1 gave a Kd in assay [1] of 1300 nM.

As to Ac-SGAHQCHHWTSGPYGEVCFNYGSGGGK-NH2 (disulfide 6-18 (inferred); not fully specified) [SEQ ID NO:319], the Kd in assay [1] is about 2000 nM.

For Ac-AGQAWVECYAETGYCWPRSWGTGGGK-NH2 (disulfide 8-15 (inferred); not fully specified) [SEQ ID NO:282], the Kd in assay [1] stood at 710 nM.

In turn, Ac-AGQAWIECYAEDGYCWPRSWGTGGGK-NH2 (disulfide 8-15 (inferred); not fully specified) [SEQ ID NO:283] gave a Kd in assay [1] of 1400 nM.

B2: SEQ ID NO:297 (peptide)
peptide: Ac-GDDSYCMMNEKGWWNCYLYDPGGGK-NH2
modifications: cysteine pairing not given here; also: C-terminal Lys fluorescein-labeled in some assays
B2 returned a Kd in assay [1] of 1300 nM.

In assay [1], Ac-GDPAQCWESNYQGIFFCDNPDPGGGK-NH2 (disulfide 6-17 (inferred); not fully specified) [SEQ ID NO:298] yielded a Kd of 2300 nM.

In assay [1], Ac-AGPEWCEVDWYYCWLLGTGGGK-NH2 (disulfide 6-13 (inferred); not fully specified) [SEQ ID NO:276] came in with a Kd of 75 nM.

Consider Ac-AGGGWVECYWATGRCIEFAGGTGGGK-NH2 (disulfide 8-15 (inferred); not fully specified) [SEQ ID NO:288], for which, in assay [1], the binding result is “no binding”.

The molecule Ac-AGANWCEEDWYYCWITGTGGGK-NH2 (disulfide 6-13 (inferred); not fully specified) [SEQ ID NO:272] gave a Kd in assay [1] of 97 nM.

In the case of Ac-AGANWCEEDWYYCYITGTGGGK-NH2 (disulfide 6-13 (inferred); not fully specified) [SEQ ID NO:281], binding in assay [1] was put at a Kd of 180 nM.

Regarding Ac-AGANWCEEDWYYCFITGTGGGK-NH2 (disulfide 6-13 (inferred); not fully specified) [SEQ ID NO:271], the affinity in assay [1], expressed as Kd, was 310 nM.

For Ac-AGSNWCEEDWYYCYITGTGGGK-NH2 (disulfide 6-13 (inferred); not fully specified) [SEQ ID NO:274], the Kd in assay [1] stood at 46 nM.

Take Ac-AGRNWCEEDWYYCFITGTGGGK-NH2 (disulfide 6-13 (inferred); not fully specified) [SEQ ID NO:279]: the Kd in assay [1] amounted to 190 nM.

For Ac-AGVNWCEEDWYYCWITGTGGGK-NH2 (disulfide 6-13 (inferred); not fully specified) [SEQ ID NO:280], binding in assay [1] was put at a Kd of 260 nM.

In the case of Ac-AGPDWCEEDWYYCWITGTGGGK-NH2 (disulfide 6-13 (inferred); not fully specified) [SEQ ID NO:273], the Kd in assay [1] is 75 nM.

As for Ac-AGDSWVECDAQTGFCYSFLYGTGGGK-NH2 (disulfide 8-15 (inferred); not fully specified) [SEQ ID NO:287], the Kd in assay [1] was found to be 2300 nM.

Ac-AQQVQYQFFLGTPRYEQWDLDKGGK-NH2 (not fully specified) [SEQ ID NO:304]: in assay [1], binding was put at a Kd of 1700 nM.

Ac-AGGGWVECRAETGHCQEYRLGTGGGK-NH2 (disulfide 8-15 (inferred); not fully specified) [SEQ ID NO:290] returned a Kd in assay [1] of 1600 nM.

Consider Ac-AGWIQCNSITGHCTSGGTGGGK-NH2 (disulfide 6-13 (inferred); not fully specified) [SEQ ID NO:268], for which the Kd in assay [1] was determined as 240 nM.

B3: SEQ ID NO:284 (peptide)
peptide: Ac-AGVGWVECYQSTGFCYHSRDGTGGGK-NH2
modifications: cysteine pairing not given here; also: C-terminal Lys fluorescein-labeled in some assays
The molecule B3 came in with a Kd in assay [1] of 1300 nM.

B4: SEQ ID NO:487 (peptide)
peptide: Ac-GDSSVCFEYSWGGEVCFRYDPGGGK-NH2
modifications: disulfide 6-16 (inferred); not fully specified; also: C-terminal Lys fluorescein-labeled in some assay forms
B4 registered a Kd in assay [1] of 58 nM.

Ac-AGSKWCEQDWYYCWLLGTGGGK-NH2 (disulfide 6-13 (inferred); not fully specified) [SEQ ID NO:278] came in with a Kd in assay [1] of 400 nM.

As for Ac-AGPDWCAADWYYCYITGTGGGK-NH2 (disulfide 6-13 (inferred); not fully specified) [SEQ ID NO:275], the Kd in assay [1] is 57 nM.

In the case of Ac-GDPPLCYFVGTQEWHHCNPFDPGGGK-NH2 (disulfide 6-17 (inferred); not fully specified) [SEQ ID NO:296], binding in assay [1] was put at a Kd of 600 nM.

Ac-AGVWECAKTFPFCHWFGTGGGK-NH2 (disulfide 6-13 (inferred); not fully specified) [SEQ ID NO:265] had a Kd in assay [1] of 2600 nM.

Turning to Ac-AGEGWVECFANTGACFTYPRGTGGGK-NH2 (disulfide 8-15 (inferred); not fully specified) [SEQ ID NO:292], the affinity in assay [1], expressed as Kd, was 2100 nM.

As for Ac-AGDWGCSLGNWYWCSTEGTGGGK-NH2 (disulfide 6-14 (inferred); not fully specified) [SEQ ID NO:313], the affinity in assay [1], expressed as Kd, was 2000 nM.

B5: SEQ ID NO:488 (peptide)
peptide: Ac-GDSRVCWEYSWGGQICLGYDPGGGK-NH2
modifications: disulfide 6-16 (inferred); not fully specified; also: C-terminal Lys fluorescein-labeled in some assay forms
In assay [1], B5 had a Kd of 320 nM.

The molecule Ac-AGVAWVECYQTTGKCYTFRGGTGGGK-NH2 (disulfide 8-15 (inferred); not fully specified) [SEQ ID NO:291] returned a Kd in assay [1] of about 2000 nM.

Molecule Ac-SGRTTCHHQISGPHGKICVNYGSGGGK-NH2 (disulfide 6-18 (inferred); not fully specified) [SEQ ID NO:318] showed a Kd in assay [1] of 650 nM.

Take Ac-GDNWKCEYTQGYDYTECVYLDPGGGK-NH2 (disulfide 6-17 (inferred); not fully specified) [SEQ ID NO:302]: the Kd in assay [1] was 820 nM.

In assay [1], Ac-SGRLDCDKVFSGPHGKICVNYGSGGGK-NH2 (disulfide 6-18 (inferred); not fully specified) [SEQ ID NO:317] registered a Kd of about 2000 nM.

PKWCEEDWYYCMIT [phage isolate PKWCEEDWYYCMIT]: the binding result in assay [2] is reported as “binds”.

In turn, Ac-SGRLDCDKVFSGPYGKVCVSYGSGGGK-NH2 (disulfide 6-18 (inferred); not fully specified) [SEQ ID NO:316] returned a Kd in assay [1] of 1050 nM.

For the molecule Ac-AGSDWCRVDWYYCWLMGTGGGK-NH2 (disulfide 6-13 (inferred); not fully specified) [SEQ ID NO:270], the Kd in assay [1] is 64 nM.

In assay [1], Ac-AGFTWVECHQATGRCVEWTTGTGGGK-NH2 (disulfide 8-15 (inferred); not fully specified) [SEQ ID NO:285] registered a Kd of 2000 nM.

The molecule Ac-GSNSHCYIWDGMWLCFPDAPGGGK-NH2 (disulfide 6-15 (inferred); not fully specified) [SEQ ID NO:315] showed a Kd in assay [1] of 740 nM.
